# Results: IntAct's records for PubMed 29426014
# B1: Ubiquitin-protein ligase (Homo sapiens), Q05086-1 (parent)
# chain: MEKLHQCYWKSGEPQSDDIEASRMKRAAAKHLIERYYHQLTEGCGNEACTNEFCASCPTFLRMDNNAAAIKALELYKINAKLCDPHPSKKGASSAYLENSKGAPNNSCSEIKMNKKGARIDFKDVTYLTEEKVYEILELCREREDYSPLIRVIGRVFSSAEALVQSFRKVKQHTKEELKSLQAKDEDKDEDEKEKAACSAAAMEEDSEASSSRIGDSSQGDNNLQKLGPDDVSVDIDAIRRVYTRLLSNEKIETAFLNALVYLSPNVECDLTYHNVYSRDPNYLNLFIIVMENRNLHSPEYLEMALPLFCKAMSKLPLAAQGKLIRLWSKYNADQIRRMMETFQQLITYKVISNEFNSRNLVNDDDAIVAASKCLKMVYYANVVGGEVDTNHNEEDDEEPIPESSELTLQELLGEERRNKKGPRVDPLETELGVKTLDCRKPLIPFEEFINEPLNEVLEMDKDYTFFKVETENKFSFMTCPFILNAVTKNLGLYYDNRIRMYSERRITVLYSLVQGQQLNPYLRLKVRRDHIIDDALVRLEMIAMENPADLKKQLYVEFEGEQGVDEGGVSKEFFQLVVEEIFNPDIGMFTYDESTKLFWFNPSSFETEGQFTLIGIVLGLAIYNNCILDVHFPMVVYRKLMGKKGTFRDLGDSHPVLYQSLKDLLEYEGNVEDDMMITFQISQTDLFGNPMMYDLKENGDKIPITNENRKEFVNLYSDYILNKSVEKQFKAFRRGFHMVTNESPLKYLFRPEEIELLICGSRNLDFQALEETTEYDGGYTRDSVLIREFWEIVHSFTDEQKRLFLQFTTGTDRAPVGGLGKLKMIIAKNGPDTERLPTSHTCFNVLLLPEYSSKEKLKERLLKAITYAKGFGML
# B2: Ubiquitin-protein ligase (Homo sapiens), Q05086-1 (parent)
# chain: B1 chain
# partner: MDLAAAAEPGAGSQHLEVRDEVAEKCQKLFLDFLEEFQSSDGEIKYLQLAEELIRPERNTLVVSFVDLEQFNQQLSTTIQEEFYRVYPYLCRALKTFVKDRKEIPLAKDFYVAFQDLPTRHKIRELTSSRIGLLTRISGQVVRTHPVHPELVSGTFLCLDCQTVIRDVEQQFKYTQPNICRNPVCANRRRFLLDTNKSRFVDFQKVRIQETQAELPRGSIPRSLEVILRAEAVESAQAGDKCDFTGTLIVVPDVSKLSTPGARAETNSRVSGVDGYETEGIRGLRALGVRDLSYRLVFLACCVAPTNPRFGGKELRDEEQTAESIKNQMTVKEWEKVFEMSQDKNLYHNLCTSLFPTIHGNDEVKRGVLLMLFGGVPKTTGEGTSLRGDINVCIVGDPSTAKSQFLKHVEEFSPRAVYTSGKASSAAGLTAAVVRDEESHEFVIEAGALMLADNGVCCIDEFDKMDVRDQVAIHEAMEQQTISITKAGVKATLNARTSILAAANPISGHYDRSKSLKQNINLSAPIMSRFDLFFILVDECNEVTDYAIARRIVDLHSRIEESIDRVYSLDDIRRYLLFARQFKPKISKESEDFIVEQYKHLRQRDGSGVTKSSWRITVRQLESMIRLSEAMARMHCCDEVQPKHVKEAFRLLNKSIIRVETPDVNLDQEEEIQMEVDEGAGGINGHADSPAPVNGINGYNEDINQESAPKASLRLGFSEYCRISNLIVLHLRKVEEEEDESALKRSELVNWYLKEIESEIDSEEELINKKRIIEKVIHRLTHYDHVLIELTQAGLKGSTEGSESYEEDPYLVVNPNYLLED
# B3: Ubiquitin-protein ligase (Homo sapiens), Q05086-1 (parent)
# chain: B1 chain
# partner: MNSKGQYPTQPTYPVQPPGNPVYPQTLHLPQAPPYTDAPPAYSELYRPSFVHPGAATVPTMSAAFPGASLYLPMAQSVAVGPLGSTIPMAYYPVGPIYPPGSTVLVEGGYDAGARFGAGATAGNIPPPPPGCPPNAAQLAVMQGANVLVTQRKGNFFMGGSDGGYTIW
# B4: Ubiquitin-protein ligase (Homo sapiens), Q05086-1 (parent)
# chain: B1 chain
# partner: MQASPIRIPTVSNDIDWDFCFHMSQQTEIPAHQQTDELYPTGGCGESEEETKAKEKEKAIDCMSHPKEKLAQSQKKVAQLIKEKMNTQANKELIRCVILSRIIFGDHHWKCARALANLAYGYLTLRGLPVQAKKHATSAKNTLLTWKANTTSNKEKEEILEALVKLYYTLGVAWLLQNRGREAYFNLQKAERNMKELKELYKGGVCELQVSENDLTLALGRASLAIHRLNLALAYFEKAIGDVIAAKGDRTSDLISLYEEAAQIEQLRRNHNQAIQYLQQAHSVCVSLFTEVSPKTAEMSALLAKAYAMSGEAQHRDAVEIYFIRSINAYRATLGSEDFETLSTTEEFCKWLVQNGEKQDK
# B5: Ubiquitin-protein ligase (Homo sapiens), Q05086-1 (parent)
# chain: B1 chain
# partner: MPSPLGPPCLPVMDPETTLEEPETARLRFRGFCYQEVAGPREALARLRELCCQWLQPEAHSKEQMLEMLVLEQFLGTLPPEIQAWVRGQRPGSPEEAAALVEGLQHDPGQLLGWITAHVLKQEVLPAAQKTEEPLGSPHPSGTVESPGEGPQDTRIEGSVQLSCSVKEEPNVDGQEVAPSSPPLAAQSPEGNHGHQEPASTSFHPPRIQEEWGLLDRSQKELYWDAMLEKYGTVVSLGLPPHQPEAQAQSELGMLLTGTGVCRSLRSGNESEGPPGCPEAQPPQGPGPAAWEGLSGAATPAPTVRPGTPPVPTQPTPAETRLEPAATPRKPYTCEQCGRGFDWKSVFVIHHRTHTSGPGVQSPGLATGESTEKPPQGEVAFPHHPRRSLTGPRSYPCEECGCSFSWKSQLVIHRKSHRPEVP
# B6: Ubiquitin-protein ligase (Homo sapiens), Q05086-1 (parent)
# chain: B1 chain
# partner: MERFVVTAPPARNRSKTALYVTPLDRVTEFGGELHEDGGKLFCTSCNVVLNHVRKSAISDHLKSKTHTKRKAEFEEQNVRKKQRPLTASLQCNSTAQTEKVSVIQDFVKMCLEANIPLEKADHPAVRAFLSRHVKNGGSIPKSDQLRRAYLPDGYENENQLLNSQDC
# B7: Ubiquitin-protein ligase (Homo sapiens), Q05086-2 (parent)
# chain: MKRAAAKHLIERYYHQLTEGCGNEACTNEFCASCPTFLRMDNNAAAIKALELYKINAKLCDPHPSKKGASSAYLENSKGAPNNSCSEIKMNKKGARIDFKDVTYLTEEKVYEILELCREREDYSPLIRVIGRVFSSAEALVQSFRKVKQHTKEELKSLQAKDEDKDEDEKEKAACSAAAMEEDSEASSSRIGDSSQGDNNLQKLGPDDVSVDIDAIRRVYTRLLSNEKIETAFLNALVYLSPNVECDLTYHNVYSRDPNYLNLFIIVMENRNLHSPEYLEMALPLFCKAMSKLPLAAQGKLIRLWSKYNADQIRRMMETFQQLITYKVISNEFNSRNLVNDDDAIVAASKCLKMVYYANVVGGEVDTNHNEEDDEEPIPESSELTLQELLGEERRNKKGPRVDPLETELGVKTLDCRKPLIPFEEFINEPLNEVLEMDKDYTFFKVETENKFSFMTCPFILNAVTKNLGLYYDNRIRMYSERRITVLYSLVQGQQLNPYLRLKVRRDHIIDDALVRLEMIAMENPADLKKQLYVEFEGEQGVDEGGVSKEFFQLVVEEIFNPDIGMFTYDESTKLFWFNPSSFETEGQFTLIGIVLGLAIYNNCILDVHFPMVVYRKLMGKKGTFRDLGDSHPVLYQSLKDLLEYEGNVEDDMMITFQISQTDLFGNPMMYDLKENGDKIPITNENRKEFVNLYSDYILNKSVEKQFKAFRRGFHMVTNESPLKYLFRPEEIELLICGSRNLDFQALEETTEYDGGYTRDSVLIREFWEIVHSFTDEQKRLFLQFTTGTDRAPVGGLGKLKMIIAKNGPDTERLPTSHTCFNVLLLPEYSSKEKLKERLLKAITYAKGFGML
# Variants of: B1
# Details: with ZNF250, P15622-3
row,Variant,effect of a mutation on the interaction
1,C843A,causing an interaction

# Variants of: B1
# Details: with PAX6, P26367-1
# Target sequence in this assay (P26367 whole entry): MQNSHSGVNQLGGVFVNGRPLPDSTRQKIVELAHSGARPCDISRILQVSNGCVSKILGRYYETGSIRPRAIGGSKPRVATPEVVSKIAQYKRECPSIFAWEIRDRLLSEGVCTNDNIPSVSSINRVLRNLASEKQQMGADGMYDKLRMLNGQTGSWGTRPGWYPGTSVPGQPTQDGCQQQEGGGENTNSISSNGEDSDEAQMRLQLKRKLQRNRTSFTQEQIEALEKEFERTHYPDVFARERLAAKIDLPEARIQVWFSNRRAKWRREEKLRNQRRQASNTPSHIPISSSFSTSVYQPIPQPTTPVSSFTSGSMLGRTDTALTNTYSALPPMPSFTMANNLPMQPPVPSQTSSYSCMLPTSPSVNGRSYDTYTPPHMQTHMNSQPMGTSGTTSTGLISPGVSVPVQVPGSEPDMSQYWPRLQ
row,Variant,effect of a mutation on the interaction
1,C843A,causing an interaction

# Variants of: B1
# Details: with magac_human MAGEA12, P43365
# Target sequence in this assay (P43365 whole entry): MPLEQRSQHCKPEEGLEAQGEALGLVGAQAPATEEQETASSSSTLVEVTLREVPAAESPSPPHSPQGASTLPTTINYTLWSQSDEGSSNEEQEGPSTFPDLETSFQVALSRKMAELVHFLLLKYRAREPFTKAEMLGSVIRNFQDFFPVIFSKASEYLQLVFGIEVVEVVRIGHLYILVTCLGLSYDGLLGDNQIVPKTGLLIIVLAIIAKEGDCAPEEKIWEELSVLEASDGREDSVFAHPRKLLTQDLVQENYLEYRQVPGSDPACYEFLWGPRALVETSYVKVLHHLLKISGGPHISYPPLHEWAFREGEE
row,Variant,effect of a mutation on the interaction
1,C843A,causing an interaction

# Variants of: B1
# Details: with PSMD4, P55036-1
# Target sequence in this assay (P55036 whole entry): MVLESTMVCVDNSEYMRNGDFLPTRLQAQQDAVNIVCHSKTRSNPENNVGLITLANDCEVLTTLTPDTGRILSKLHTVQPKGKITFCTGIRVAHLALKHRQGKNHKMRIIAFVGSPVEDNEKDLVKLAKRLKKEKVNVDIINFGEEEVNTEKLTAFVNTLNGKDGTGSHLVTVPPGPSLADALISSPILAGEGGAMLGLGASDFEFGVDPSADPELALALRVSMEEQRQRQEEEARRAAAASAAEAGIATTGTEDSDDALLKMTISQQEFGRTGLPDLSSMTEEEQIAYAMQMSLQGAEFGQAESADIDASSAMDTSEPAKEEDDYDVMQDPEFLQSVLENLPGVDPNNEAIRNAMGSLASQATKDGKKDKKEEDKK
row,Variant,effect of a mutation on the interaction
1,C843A,with no effect

# Variants of: B1
# Details: with PAX5, Q02548-1
# Target sequence in this assay (Q02548 whole entry): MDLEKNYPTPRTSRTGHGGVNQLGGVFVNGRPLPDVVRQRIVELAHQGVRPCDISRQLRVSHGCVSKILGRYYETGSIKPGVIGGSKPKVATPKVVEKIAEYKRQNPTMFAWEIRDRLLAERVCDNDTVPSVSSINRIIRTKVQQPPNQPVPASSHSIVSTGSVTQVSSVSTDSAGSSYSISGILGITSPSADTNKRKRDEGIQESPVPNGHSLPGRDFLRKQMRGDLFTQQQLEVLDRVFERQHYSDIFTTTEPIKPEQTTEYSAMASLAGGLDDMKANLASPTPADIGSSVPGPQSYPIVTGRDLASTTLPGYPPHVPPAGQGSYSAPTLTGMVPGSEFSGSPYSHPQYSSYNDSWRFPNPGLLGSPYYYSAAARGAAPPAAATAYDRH
row,Variant,effect of a mutation on the interaction
1,C843A,causing an interaction

# Variants of: B1
# Details: with PTCD3, Q96EY7-1
row,Variant,effect of a mutation on the interaction
1,C843A,with no effect

# Variants of: B1
# Details: with ubql2_human UBQLN2, Q9UHD9
# Target sequence in this assay (Q9UHD9 whole entry): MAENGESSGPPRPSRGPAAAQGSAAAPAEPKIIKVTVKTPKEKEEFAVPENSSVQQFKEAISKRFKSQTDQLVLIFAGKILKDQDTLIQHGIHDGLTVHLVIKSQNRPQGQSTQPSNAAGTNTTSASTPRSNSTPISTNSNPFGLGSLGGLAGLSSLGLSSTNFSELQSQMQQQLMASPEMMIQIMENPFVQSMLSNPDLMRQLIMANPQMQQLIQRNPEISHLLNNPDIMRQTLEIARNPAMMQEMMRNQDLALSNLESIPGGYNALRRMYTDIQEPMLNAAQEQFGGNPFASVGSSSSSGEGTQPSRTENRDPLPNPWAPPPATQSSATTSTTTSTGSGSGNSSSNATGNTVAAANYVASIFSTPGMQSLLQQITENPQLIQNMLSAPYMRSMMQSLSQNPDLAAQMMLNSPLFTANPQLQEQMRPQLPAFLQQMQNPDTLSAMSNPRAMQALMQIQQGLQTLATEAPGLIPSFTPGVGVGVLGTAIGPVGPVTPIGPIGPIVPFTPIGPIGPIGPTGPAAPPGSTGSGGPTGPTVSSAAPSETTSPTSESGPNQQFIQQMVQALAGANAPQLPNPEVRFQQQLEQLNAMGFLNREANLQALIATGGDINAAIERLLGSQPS
row,Variant,effect of a mutation on the interaction
1,C843A,with no effect

# Variants of: B1
# Details: with UBQLN1, Q9UMX0-1
# Target sequence in this assay (Q9UMX0 whole entry): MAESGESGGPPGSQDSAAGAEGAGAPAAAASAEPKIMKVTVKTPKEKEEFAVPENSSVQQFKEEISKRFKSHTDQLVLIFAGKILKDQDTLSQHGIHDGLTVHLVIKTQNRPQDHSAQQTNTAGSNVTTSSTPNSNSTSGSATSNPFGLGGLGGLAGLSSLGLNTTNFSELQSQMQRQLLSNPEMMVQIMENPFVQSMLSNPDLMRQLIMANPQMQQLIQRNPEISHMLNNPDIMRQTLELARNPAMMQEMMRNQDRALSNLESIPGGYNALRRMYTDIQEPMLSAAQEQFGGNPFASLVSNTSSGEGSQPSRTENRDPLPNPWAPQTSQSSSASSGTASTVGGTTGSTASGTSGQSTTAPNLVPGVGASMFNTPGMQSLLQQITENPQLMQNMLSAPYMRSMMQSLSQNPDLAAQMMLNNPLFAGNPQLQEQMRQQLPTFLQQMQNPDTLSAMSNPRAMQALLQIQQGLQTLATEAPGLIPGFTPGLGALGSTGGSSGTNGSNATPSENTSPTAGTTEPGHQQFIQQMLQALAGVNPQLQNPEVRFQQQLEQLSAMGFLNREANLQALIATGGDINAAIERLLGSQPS
row,Variant,effect of a mutation on the interaction
1,C843A,with no effect

# Variants of: B2
# Details: with mcm6_human MCM6, Q14566
row,Variant,effect of a mutation on the interaction
1,C843A,with no effect

# Variants of: B3
# Details: with DAZAP2, Q15038-1
row,Variant,effect of a mutation on the interaction
1,C843A,causing an interaction

# Variants of: B4
# Details: with TTC23L
row,Variant,effect of a mutation on the interaction
1,C843A,causing an interaction

# Variants of: B5
# Details: with ZNF446, Q9NWS9-2
row,Variant,effect of a mutation on the interaction
1,C843A,causing an interaction

# Variants of: B6
# Details: with cgbp1_human CGGBP1, Q9UFW8
row,Variant,effect of a mutation on the interaction
1,C843A,causing an interaction

# Variants of: B7
# Details: with ZNF250, P15622-3
# Target sequence in this assay (P15622 other isoform, or with tags, fused parts or gaps): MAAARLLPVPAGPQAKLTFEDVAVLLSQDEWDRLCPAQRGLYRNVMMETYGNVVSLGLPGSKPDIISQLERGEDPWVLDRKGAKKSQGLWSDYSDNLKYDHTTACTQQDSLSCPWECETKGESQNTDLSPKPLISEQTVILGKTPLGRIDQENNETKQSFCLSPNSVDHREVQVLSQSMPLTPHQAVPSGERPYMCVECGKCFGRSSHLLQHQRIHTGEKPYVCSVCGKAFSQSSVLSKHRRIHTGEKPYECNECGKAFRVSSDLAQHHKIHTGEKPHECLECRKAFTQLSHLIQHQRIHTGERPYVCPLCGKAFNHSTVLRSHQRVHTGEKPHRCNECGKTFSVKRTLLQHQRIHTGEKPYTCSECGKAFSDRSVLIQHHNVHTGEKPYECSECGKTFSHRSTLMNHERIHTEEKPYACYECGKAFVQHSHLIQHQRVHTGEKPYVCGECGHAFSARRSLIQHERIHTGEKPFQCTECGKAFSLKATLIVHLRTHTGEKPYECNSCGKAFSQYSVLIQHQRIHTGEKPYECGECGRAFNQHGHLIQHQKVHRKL
row,Variant,effect of a mutation on the interaction
1,C820A,causing an interaction

# Variants of: B7
# Details: with PAX6, P26367-1
# Target sequence in this assay (P26367 whole entry): as the sequence (P26367 whole entry) above
row,Variant,effect of a mutation on the interaction
1,C820A,causing an interaction

# Variants of: B7
# Details: with magac_human MAGEA12, P43365
# Target sequence in this assay (P43365 whole entry): as the sequence (P43365 whole entry) above
row,Variant,effect of a mutation on the interaction
1,C820A,with no effect

# Variants of: B7
# Details: with PSMD4, P55036-1
# Target sequence in this assay (P55036 whole entry): as the sequence (P55036 whole entry) above
row,Variant,effect of a mutation on the interaction
1,C820A,with no effect

# Variants of: B7
# Details: with PAX5, Q02548-1
# Target sequence in this assay (Q02548 whole entry): as the sequence (Q02548 whole entry) above
row,Variant,effect of a mutation on the interaction
1,C820A,causing an interaction

# Variants of: B7
# Details: with PTCD3, Q96EY7-1
row,Variant,effect of a mutation on the interaction
1,C820A,with no effect

# Variants of: B7
# Details: with ubql2_human UBQLN2, Q9UHD9
# Target sequence in this assay (Q9UHD9 whole entry): as the sequence (Q9UHD9 whole entry) above
row,Variant,effect of a mutation on the interaction
1,C820A,with no effect

# Variants of: B7
# Details: with UBQLN1, Q9UMX0-1
# Target sequence in this assay (Q9UMX0 whole entry): as the sequence (Q9UMX0 whole entry) above
row,Variant,effect of a mutation on the interaction
1,C820A,with no effect

# Variants of: B7
# Details: with herc2_human HERC2, O95714
row,Variant,effect of a mutation on the interaction
1,C820A,causing an interaction
